The source of these data is a protein production outcome set (Wang et al. 2014).

A short description of this series: label from the status in PepcDB records.
In the case of “MEYDYLVIAGYFALMVAISLLFKKMASNSTSDYFRGGGKMLWWMVGATAFMTQFSAWTFTGAAGKAFNDGFAVLAVFVGNMVAYVFAYFYFARRFRQMRVDTPTEGVKRRFGNTNEQFFTWVIIPLSVINAGVWLNGLGVFASAVFNADIVTTIWVTGLAVLAISLLSGAWGVVASDFIQTLVVAVISIACAAVALYVVGGPGEIVENFPGGFIMGPDMNYPLLLVCTFIFFVVKQLQSINNMQESYRFLNAKDSKNASKAALMALVMMLFGAVIWFIPPWASAILYPDAATQYSSLGAKASDAVYLVFARETMPLGTVGLLMAGLFAATMSSMDSALNRNSGIFVRSFYSNIVRKGQASDKELLRAGQIACLVNGILVIMMAQFFNSLKHLSLFDLMMQVATLLQSPILVPLFLGIIIRRTPKWAPWATVVVGMFVSWSVVKIFTPEFVGSWFGMDELTRREAGEMRTMITIAAHLVFTAGFFCLSTLFYKEETDTHKETTAEFFKDVDTECVAEEGQDIVDRMQRAKLGTLVIYMAAGLTLMVLIPNPLWGRLLFLACAASVFAVGYGLKKSAKLDTQLSKVAATTTQ”, the protein production result is on record as “failed”.

Take “MEYGAICTPFIFVVYAKSKYLCVLISNEMGKNKLEKFADMASYPHVFEYPYSAVDNVPFDMKGKWHQEFFGNDHPIVLELGCGRGEYTVGLGRMFPDKNFIAVDIKGSRMWTGATESLQAGMKNVAFLRTNIEIIERFFAAGEVSEIWLTFSDPQMKKATKRLTSTYFMERYRKFLKPDGIIHLKTDSNFMFTYTKYMIEANQLPVEFITEDLYHSDLVDDILSIKTYYEQQWLDRGLNIKYIKFRLPQEGVLQEPDVEIELDPYRSYNRSKRSGLQTSK”: the protein production result is recorded as “failed”.

Consider “MEYHLRTKLNGNIAMTSCFHENSFLQCDRSLYKFIWVRHGALDVEVDHVVMHLEKEEMISLTPLHHVQIRGVDGEYLTFLFNSNFYCIYGHDSEVSCNGFLFNGSSRVMRLKLSPSQSARLDSIVDIFRGECGIQDNLQEEMLRIILKRFIITCTRIAREKFDVDPGRENMFDVIRQFYVLVDSHFKEKKQVQDYADMLCRSPKTISNLFSLYGLSSPLRVIHERVDAEAKRLLLYTGKSAKEISEILGFEDLATFSRFFKKMNKESLSEYRKREKRE”, for which the protein production entry is “not failed”.

With “MEYRITGKGVEISEAIKNYLEKRLDKIDRVIYDDDLVSFNVRIEKDGKNQYVVKFNMNLKGNIINVEERHPDIYTAIDFASDALEKQVKRLKERLKNHPHRSSALVETPLEEPGEFSPSDKVSSVKRVSLLNLDLDEAVMQMDELNHRFLVFRNVNTGEINLLYRDENGDIHLIEMAE”, the protein production result was “failed”.

For “MEYYDIIIVGAGPAGSTLARALEDSGKRVLIIDKQAFPRDKTCAGWVTPAVMASLDIDPGKYSVGRTLQPIRRFRIGMMGQSAVENDHGDIVSYGIRRCEFDDYLLDRAECEKQLATAVKSINRNNGNWVINDQWQAPLLVGAGGHFCPVARLLGDGPGKHETVVAAKEVEFEMTPEQARACEARGDTPELWFCRDLKGYAWVFRKGSYLNIGLGREDNHRLSDHLEAFVEEMKQSGRIPSDLPGRFKGHAYLLYAHANRPLVDDGVLLIGDAAGLAYTQSGEGIRPAIESALMAANVIKAAPDYSALSLQSYGERIAERFGTRATDQQPGFEVPEWLKQPIASTLMRSHWFTRKVVTEKWFLHQEVPPLEVAV”, the protein production result is on record as “failed”.

Regarding “MEYYFTAQKLAVGYDNRPLIENIDFSLKRGEILTLIGPNGAGKSTILKSIARQLSLVSGTIYLDKSDVVTMNGNEFAKKMAVVLTDKLKTELMTCYDVVATGRYPYTGRFGVLSDEDKKAVDEAMELVNVSQIKDKDFTKISDGQRQRVMLSRAICQQPEIIVLDEPTSYLDIKYKLEFLSILQRLKRQKNLTVIMSLHELDMAKRVSDHILCIDGRYVDRYGTPEEVFTDQYVSGLFGITAGSLEHHHHHH”, the protein production entry is listed as “not failed”.

Take “MEYYQPVEINVLSAQDLNSINLLFRPTVYVSVSVTRGSRDKQVTPAAAWDKKFLRWNYRMKFYIEDDKVRRNESVFVFQIKCKRFFGSDQVVGKLFIPGCRLGVWGNIRHEPSAPCEDDIYA”: the protein production result is given as “failed”.

Consider “MFADNTLTPKEAVRLCALGTIASQPMRYSELAGSVRHFTSRIMGPSLELMGISIELLRYEGLVEAVDDGQGMEDDAMLAISAAGRRELHSLLTARLRPGSDLSKLVVALKMRFLGLMEAEERAHQIDLLIEGVDSELARLADLRGSDGEGGSALAAWLDHDMALLESRLAWLEDFRARL”, for which the protein production result is recorded as “not failed”.

Turning to “MFAEYLDGRMLMQINAGAFLIALLCLRGDRQRTLDRWLFGAAAGVLLLVYYVWRFTDTLPEWRMDFPSLWAHAFFGFESLTIAYTLISIGIMTRTSDHSAEADAGETALRRGREAPPVDIFIATYNEGLDVLEKTIVAALDIDYPNFRVWVLDDTRRDWLREFCDQVGARYVTRPDNAHAKAGNLNNGLRHSAELDGGAPFIMVLDADFAPNRNILLRIVGLFDDPQVGVVQTPQFYYNADPIQYNLRSTECWVDEQRAFFDVMQPSKDAWGTAFCIGTSFVVRREALDRIGGFPIGTVTEDIHLTYKLMPHGYITRWLNERLSVGLSAEGLPEYISQRSRWGLGTIQVALTADGPLRGPGYTLRERLHYVHGLLHWLSRPFTLMLLAGPLLYWYFNVPTLYGEPLQFLAFGVPALLLYWAYSIWITGARAMPIFTEVTQIVAAMAVSATLVSAIFKPFGRPFKVTNKGLDRSKLVVHGKFAAFYGALFVLAAMGLGRAVAADGTASGVVFNIGWTVISMVLYLASLLVCFELPRPRKEERFPHRERARLCIYGSDGLPREFDGVTQDMSCNGIGLISDAAGRVEAGATGAVWLSELGWVTCRVARTQGHLLGIELFPDMAGRHRLIRMLFGEPAHNIAHRGRPRVAIVQLLRRAFTG”, the protein production entry is “failed”.

For the sequence “MFAMPTFELDALTTLALALILLGVGAQLKKRSRWLTQLCVPAPVIGGFGFALIVWLLRDQQLLAIKLDTAIQTPLMVAFFTTVGLGGSLGLLRRGGKILFVYLGACWSLALLQNLVGVGAAKALGIDPLLGIMAGAVSLEGGFGAAAAFGPIAENLGAVGATTAALASATFGMVAGGLLGSPLARWLIERNRLQIQADQVSTLQHLESAAQGSVAPLDAPTLLRLLTCILLIMVLGFWIGSALNEHLGIVLPSYVGAMFVAIILRNLNDRARIIDIPDSAVSTLGDVCLGVFLTMAMMSLKFWELEQLGLPLLVILVVQVLVMVLLCVFLLFRLFGGNYDAAVLCAGFMGHGLGATPNAVANMGAICDHYKVFSYKAFIIVPLCGAVLIDIVAIPLITWFINAFA”, the protein production result is recorded as “failed”.

As for “MFDSVLQQSMQQWLETSLGQYVLEQEQRYFDRVVTDIFGYNATQIGFSGFDFLRNNRMPFKFAFGVRDGASVYAHPHFLPIKSSSIDLVLLPHTLEFNSNPHQILREAHRVLIPEGKVIISGFNPFSLWGMRQRMAKSKTDFPWCGRFIALPRMQDWLELHNFEIVAGQFGCYVPPCTREKWLSRLRFMEAAGDRWWPIAGGVYFLQAVKHECGLHIITPRWEDSPAKRGTVVVPQIERGHRMNNLEVSTVPWREKAGGGLIENRKYGVQYSVNNRDV”, the protein production entry is listed as “failed”.

As for “MFENESLSFEEQTIIQAAERYVQQELANEASGHDWWHIYRVTQLAKTIAEKEQANLFLCILTALLHDIGDEKFNESEEAGLLKVQQWLEANNVSTEQTNHILSIIANMSFKGGNTGKTVTTLEGKVVQDADRLDAIGAIGIARVMAYSGNKGRLIHDPHKQPREQLTQEEYRNGEDTAIMHFYEKLLKLKEQMNTNYGRLLAEKRHQFMELYLEEFYQEWDGHRLEHHHHHH”, the protein production entry is “not failed”.

With “MFERLPVPLSRHERAGPPMPEIGPYTLHTVDTGRFGLDGGAMFGIVPKPLWSQRIEPDEQNRIPLSMRCLLLIGDGRVVLIDTGIGDTFEDTKFQDIFAVDHSGATLEGSLAAHGVAPVDVTDVVLTHLHFDHAGGSTRRIDGEPAVAFPNATYHVQRRHWNWAADPNPKEEQSFRSDTFAPIEEAGQLNLVEGETTLLPHVDVSLVHGHTEAQQTVTVRDDETTLVYVADLLPTTHHLSPAWTMAYDVRPLRTIEEKGEFLEQAADSEWKLFFEHDPEVAVADVERTDRGVQVVNERSLDAL”, the protein production entry is on record as “failed”.

Consider “MFFEIALIGTTASGKTYIANTLAREFNAVVLSLDSLCVYKEINIASAKPSQDDLASIKYFGVNLLSVNEHFNVELFIREYQKAKEFALARNLPLIIVGGTGFYLKTMIDGLSEKTLESKSSLNNDEIYALLLNIDPNYKIEKNDTYRLKKWLGIYEQTREIPSEFLKRTQKTGVLKDIEIYELAWDKEILKKRIKTRTKEMLDNGLLDEAKILFSKFDHKLKALNSIGLKECKEYLDGEISFKELENLITIHTTQLAKRQRTFNKKFQSKALEFDKALATLRMKFSIEKLEHHHHHH”, for which the protein production entry is “failed”.

As to “MFFKEIHHVAINASNYQATKNFYVEKLGFEVLRENHRPEKNDIKLDLKLGSQELEIFISDQFPARPSYPEALGLRHLAFKVEHIEEVIAFLNEQGIETEPLRVDDFTGKKMTFFFDPDGLPLELHE”, the protein production result is given as “not failed”.

As to “MFFLLLTPFNAAASETNSDDATADAKNLSGTNAADTVVSQIIGASVYIEGEIYNNEYATISVTTKNEGDKSSEGHIIVAFPNNEEILSKEGSGDRVDIYPSGSSIETKDGTKIDSSEYLFVDLVKYDWETGKNETLNLKVKPNKGSEEIVYLVRAELMNDATGDYERYPGILSESSDVDQQGWYVYNNSFGVSGDPDLMIEDISWEPENPHENENVTFKVTLKNVGLASSGNCSVKCYLDGNEISFSTVSGLEADSTTSFTFNWVPTSSGSMDLKVVVDSEGQFVEFTEENNEKTGIFKVISYTNSSSPSSPSPGSGSSSSSSSSGGGAGGSPEPASNVEIKELAQQFVSNGNHAKFIFAKNVTSIAYIEFDPKKTVGKTTTIVETLKGKSTLVTELPTGKVYKNTNIWVGNEGTASSENIENAVVGFKVEKTWINSNGVDSSSVKLWAFEDEKWVELPTSQTDEDEDYVYYEADTPGFASFSIMALYPEENTEGTSLPLGSYVEDKDTKAVSETSEEESEVVDSEAGENNSGSMKKGLLAIGMLAAVILAGYVISRKQD”, the protein production entry is recorded as “failed”.

For “MFFLSDHDTLISSIEAIGASFAVFEFDPQSVAFELVSCNSRYEDLMGYSSAKALGQPLTTIFPRYIHNPLKEAFIHCKNERIALETEIVLDYKGQERCWRSIVSPIVNSADEKFRIIQTCVEITEKKVLEKQLNLSMKRFEAVVNNAYDGIITIDEQQNVKLFNEAAQSMFGYSEQEIMGQPLTKLLPEKYQAKHHGYVEGFKRSQVDSRPMQTRAAVQGLRKDGSEFAIEVTISKIRIADNVEFTAVIRDISEKNQLLEELILSSRRDPLTELYNRRYFTELLHSEITRSRRFKRGFSLLMLDIDHFKSINDRYGHACGDAALIAFSKAVTNSIREVDTICRWGGEEFLVLLPEIPKVTAMVVAEKIRKNIENLETIYEGDLIKVTVSIGLEYFSGDAIEMSSMINKVDQILYRAKDTGRNKISTEI”, the protein production entry is listed as “failed”.

“MFFSKLFRKDAASCLEKGEKLLAAGRFAEARLSLEDALERLDAHSPEGATTAAVIREKMVVAGNRLAEMNLQEAEHCLKSGEFAKAEEHLNLTLDLADDVTIRDKAVKSFALLEKQIPHVHHHEKKGGCGGCGGSTSQHSENIELEDDGLNDMDRFELLVRPLPGDLPERYADLGEEFAGGYLAAHGGDQMTAEKVFERLLASGESDILLYELAILSHQGGDGRRCETLLRRALALNDTNPLCNLSLVQLLTENGRFTEAVPLLERMVERDILPDQAGMFLGEIYRVQGESDRAIAQFSQLLSTPLKREAAERLVGLLETTGRSQEAALVAKQYLKGCC”: the protein production result is listed as “failed”.
